Assay results from CN108635579A (UNIV JINAN, dated 2018).

Key:
重组人碱性成纤维细胞生长因子(bFGF) [1] = biological target: T1, 重组人碱性成纤维细胞生长因子(bFGF) (human, UniProt P09038 143-288, limits assumed); test: cell-based or functional assay
T1 construct: Bought protein; also called 重组人bFGF; bFGF抗原

重组人碱性成纤维细胞生长因子(bFGF) [2] = biological target: T1, 重组人碱性成纤维细胞生长因子(bFGF); test: SPR, bFGF immobilised on the chip, nanobody 3.125-200 nM in flow

T1 sequence (P09038 143-288 limits assumed): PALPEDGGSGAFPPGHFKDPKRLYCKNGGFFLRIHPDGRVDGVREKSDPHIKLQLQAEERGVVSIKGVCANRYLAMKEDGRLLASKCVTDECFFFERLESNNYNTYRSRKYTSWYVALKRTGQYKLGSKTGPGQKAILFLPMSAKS

| Molecule | Kd (重组人碱性成纤维细胞生长因子(bFGF) [2]) | also measured |
| --- | --- | --- |
| 阳性对照FGFR (receptor) | – | 最高增值抑制率, A375细胞 (CCK-8) (重组人碱性成纤维细胞生长因子(bFGF) [1]): 25.3%; 最高增值抑制率, B16-F10细胞 (CCK-8) (重组人碱性成纤维细胞生长因子(bFGF) [1]): 22.1%; 最高增值抑制率, B16细胞 (CCK-8) (重组人碱性成纤维细胞生长因子(bFGF) [1]): 27.1% |
| 抗bFGF纳米抗体 Nb6 (VHH, Alpaca nanobody; Nickel-purified, anti-Flag detected; also called Nb bFGF) VHH: LQESGGDLVQPGGSLRLSCEVSGSNFSINDMGWYRQAPGKRREVVAGISSVGRTMYGDPVKGRFTISRDNAKNMVYLQMNRLKPEDTAVYYCHLYGDYRGTGFWGKGTQVTVSS | 10.3 nM | – |
| 抗bFGF纳米抗体 Nb3 (VHH, Alpaca nanobody; Nickel-purified, anti-Flag detected; also called Nb bFGF) VHH: LQESGGDLVQPGGSLRLSCEVSGSNFSINDMGWYRQAPGKRREVVAGISSVGRTMYADPVKGRFTISRDNAKNMVYLQMNRLKPEDTAVYYCHLYGDYRGTGFWGKGTQVTVSS | 5.37 nM | – |
| 抗bFGF纳米抗体 Nb2 (VHH, Alpaca nanobody; Nickel-purified, anti-Flag detected; also called Nb bFGF) VHH: LQESGGDLVQPGGSLRLSCEVSGSNFSINDMGWYRQAPGKRREVVAGISSVGRAMYADPVKGRFTISRDNAKNMVYLQMNRLKPEDTAVYYCYLYGDYRGTGFWGKGTQVTVSS | 318 nM | – |
| 抗bFGF纳米抗体 Nb1 (VHH, Expressed from pET22b in E. coli, purified on a nickel column and detected with an anti-Flag antibody; also called Nb bFGF) VHH: LQESGGDLVQPGGSLRLSCEVSGSNFSNNDMGWYRQAPGKQREVVAGISSVGRTMYGDPVKGRFTISRDNAKNMVYLQMNRLKAKDTAVYYCHLYGDYRGTGFWGKGTQVTVSS | 11.3 nM | – |
| 抗bFGF纳米抗体 Nb5 (VHH, Alpaca nanobody; Nickel-purified, anti-Flag detected; also called Nb bFGF) VHH: LQESGGGLVQAGGSLRLSCAASGRTFSSGAMGWFRQAPGKEPEFVATITWDGGTTYYADSVKGRYTISRDNAKNTVYLQMNDLKPEDTAVYSCAARSYSEAYYLIGSSDYNYWGQGTQVTVSS | 12.4 nM | – |
